Reference: the supplement of paper PMC9170038

Tested on: MS2 coat protein
Assay: apparent KD of MS2 coat protein; higher = weaker reporter binding
Conditions: Eterna round: R107
Method: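 RNA-MaP round R107: designed RNA switches with theophylline, tryptophan, arginine or FMN aptamers are transcribed on-chip within common flanks. They are titrated with SNAP-549-labelled MS2 coat protein in RNA-MaP buffer (100 mM Tris pH 7.5, 80 mM KCl, 4 mM MgCl2), without ligand or with the indicated ligand. Median apparent KD per design.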

[1] = input ligand: theophylline 20 uM
[2] = input ligand: theophylline 2 mM
[3] = input ligand: tryptophan 2.4 mM

Row | Sequence | apparent KD of MS2 coat protein (input ligand: arginine 13.2 mM) [nM] | apparent KD of MS2 coat protein (input ligand: none) [nM] | apparent KD of MS2 coat protein [1] [nM] | apparent KD of MS2 coat protein [2] [nM] | apparent KD of MS2 coat protein [3] [nM]
1 | UCGCUCUGGGUGAGAUCCGGAGAUAUGGAAGGAGCGCUGAUUCCAGCAGGUAGGUCGCCAACGGACAUGAGGAUCACCCAUGUAC [Same State - Arginine A (Freestyle 11)] | 36.6 | 46.9 | 60.4 | 55.5 | 43.1
2 | UGUAUGUGAUCUGAUACCAGUCCAACUGGUAAAACUUGAGGAUCACCCAGGUAAAAUUGGGACCCUUGGCAGCAGAUCGCAUACU | 150 | 316 | 597 | 129 | 705
3 | GAUGAACUAUUUGAUACCAGACCACAUGAGGAUCACCCAUGUGAGUUUCGUCCUUAGCCGGUCCCUUGGCAGCAAAUAGUUUAUC [#27 Exclusion-TheophyllineB] | 19.3 | – | 24.1 | – | 16.7
4 | AACAUACAAUUUUAGGUGGAUAUAAGGCGGCGAGGACCGGUACGGCCGCCACUCGCGUACAUGAGGAUCACCCAUGUCUGAAACU [Same State - Tryptophan A (Freestyle 5)] | 14.6 | 19.8 | 28.1 | 28.9 | 24.4
5 | GCUGCCAUACGAAGGAGCGCUGCUGCGAUGUGGCGAACAUGAGGAUCACCCAUGUGGCAGCAGCAGGUAGGUCGCGUAUGGCAGC [#01 Exclusion - Arginine B] | 131 | 144 | 489 | 259 | 198
6 | AAUUUUAACGGAAGGAGCGUCACGUAAUUCAUACAUGAGGAUCACCCAUGUUAGUUGUAGAGACAGGUAGGUCGCCGUUAUUUGA [JR_AAArginiB_Sub025] | 15.7 | 15.7 | 20.9 | 17.1 | 17
7 | UCACAUGAGGAUCACCCAUGUACAGGCGAUACCAGCCGUACAUUGGGCCCUUGGCAGCGCACCGAGACCUUUAUAAGCACCUCGG [Zaoranorre] | 67 | – | 207 | – | 15.7
8 | ACGCCCAGGUAGGCUUAGUGGGAAAUGGAAGGAGCGCUGAUGCAAGCAGGUAGGUCGCCAACGAACAUGAGGAUCACCCAUGUAA [Same State - Arginine A (Freestyle 1)] | 14 | 17.9 | 29.8 | 20.7 | 16.4
9 | GCAUCCUAGUCGGCCGCCACUGCAAUUGUAAUACUGCUACAUGAACAUGAGGAUCACCCAUGUAGCAGGACCGGGACUAGGAUGC [(Trp1)-(TM)''-(TM)'-(Ms2)-(Trp2)_Design9] | 80.4 | – | 185 | 222 | –
10 | AAUAACAUGAGGAUCACCCAUGUAAAAGAUACCAGAUGCAUGAUGAUCCCUUGGCAGCUUAAAACGCGAUUGAUUACAAUCGCGA [Mat - Same State Theophlline A - Mod of Eli - D12] | 41 | – | 77.9 | – | 27.5
11 | GGGUACAUCGCGGCCGCCACUUAUGUAAAUACAUGAGGAUCACCCAUGUCGAUGGAGACAUCGGAGAGGACCGGGUGAUGUACCG | 28.2 | – | 41.6 | 48 | –
12 | UGUUUGGUGCGCGAGUGUUGGAUAAUUGAUACCAGUGAAGAAGAGCGCCCUUGGCAGCGAAUCCUAACAUGAGGAUCACCCAUGU [5.U] | 41.5 | 39.7 | 84.8 | 51.7 | 39
13 | ACGAUAGGACCUGAGGAUCACCCAGGUGAUACCAGCCUGGAAACAGGCCCUUGGCAGCACCAAUACUCCAAUAACCUAUCGAAUA [TheoAX 11 #MicroSwitchBubble #AlternativeMS2] | 96.8 | 220 | 442 | 372 | 213
14 | UUUGAUAGAACAGAUACCAGCGUGUUAUAAAACAUGAGGAUCACCCAUGUAGUGAUCAAGCGCCCUUGGCAGCUGGUUUGUUAGG [7.I] | 76.4 | – | 122 | – | 161
15 | ACGAUACGACAUGAGGAUCACCCAUGUGAUACCAGCGUGGAAACACGCCCUUGGCAGCACAAAUACUCCAGAAACGUAUCGAAAA [MAT - Exclusion Theophlline A - Mod of Eli - D7] | 93.3 | – | 258 | – | 285
16 | CUGCCACAGAUAGAUACCAGAGGCGUGCAAGCUACAGCUCACAUGAGGAUCACCCAUGUUCUCCCUUGGCAGCUACGGUGUAAGG [theeternabot_exclusion_MS2_Theo_B_26] | 17.1 | – | 24 | – | 19.4
17 | UGACGAUACCUGGAUACCAGCGACAUGAGGAUCACCCAUGUAUGAGGAUCAGCCAUGUUAUGCCCUUGGCAGCCACGAAAGUCUU [UUUMULLIN] | 37.5 | – | 115 | – | 40.3
